Target: CCR3 (UniProt P51677)
Sequence (P51677 whole entry): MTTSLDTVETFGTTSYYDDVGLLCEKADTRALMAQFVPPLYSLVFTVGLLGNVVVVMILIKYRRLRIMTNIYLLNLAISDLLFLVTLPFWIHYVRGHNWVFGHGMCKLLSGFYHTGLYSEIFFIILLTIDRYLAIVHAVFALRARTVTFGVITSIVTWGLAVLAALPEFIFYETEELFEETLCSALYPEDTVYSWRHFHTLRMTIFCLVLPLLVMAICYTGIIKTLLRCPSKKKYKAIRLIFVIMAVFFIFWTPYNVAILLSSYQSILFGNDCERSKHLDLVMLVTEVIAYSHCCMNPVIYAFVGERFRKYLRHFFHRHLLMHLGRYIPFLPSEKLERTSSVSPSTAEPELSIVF

CCL5, sequence (P13501 24-91): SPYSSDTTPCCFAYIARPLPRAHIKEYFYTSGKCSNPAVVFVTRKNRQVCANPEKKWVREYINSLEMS

- reduction of CCR3 surface expression on human eosinophils (flow cytometry), 12.5 nM CCL5, 15 and 60 min: 56.1%
Substance: CCL5 (from UniProt P13501 24-91) (ligand)

From publication PMC3711072
